Laboratory results from patent publication US8722043B2, “Induction of p53 expression by neutralization of neuropilin-2 for the treatment of cancers” (Diaclone, priority 2008, dated 2014).

What was measured:
[1] = system: HT29-NRP-2 cells; test: Annexin V-APC apoptosis test; assay type: cell-based, human
Protocol: In order to determine the ability of the ITAC-B1 antibody to induce apoptosis of tumour cells expressing NRP-2, an in vitro Annexin V-APC apoptosis test was carried out (BD Pharmingen, San Diego, Calif.). This test is based on the externalization of phosphatidylserin by apoptotic cells and on the binding of Annexin V-APC to this molecule.
1 ml of DMEM medium containing 10% of inactivated FCS and 100 000 HT29-NRP-2 cells or 100 000 HT29ctrl cells were seeded, per well, into a 24-well Nunc plate. […] In parallel, “cells alone” controls were carried out, as were negative controls (anti-human mouse IgG1 antibody (BZ1) at the same concentrations as the ITAC-B1 antibody).
[…] When the cells began to detach, 500 μl of DMEM medium-10% FCS were added per well. The cells were then centrifuged, washed twice in PBS, and then taken up in 300 μl of 1× binding buffer (provided in the kit), and then 5 μl of Annexin V-APC were subsequently added to 100 μl of this solution.
The panels of FIG. 13 are point-cloud representations of the flow cytometry analysis. For each of the panels, the fluorescence intensity (corresponding to the labelling of the cells with Annexin V-APC) is represented on the x-axis. The y-axis indicates the granulosity of the cells (Side Scatter or SSC). […] The percentage of cells labelled with Annexin V-APC (corresponding to the percentage of cells having entered into apoptosis) is indicated at the bottom-right of each panel.
The apoptosis induced was then measured by labelling with Annexin V-APC as described above.
The panels of FIG. 15 are point-cloud representations of the flow cytometry analysis. For each of the panels, the fluorescence intensity (corresponding to the labelling of the cells with Annexin V-APC) is represented on the x-axis. The y-axis indicates the granulosity (side scatter) of the cells. The conditions of treatment with the antibodies and the Avastin® are indicated to the left of the panels. The percentage of cells labelled with the Annexin V-APC, corresponding to the percentage of cells having entered into apoptosis, is indicated at the top-right of each panel.

[2] = system: AKT protein; test: Western blotting of AKT and its phosphorylation; assay type: cell-based, human; conditions: 20 μg/ml, 24 hours; HT29-NRP-2 and Colo320^siRNA-ctrl cells; treated versus not treated
Protocol: The possible effect of the ITAC-B1 antibody on the degree of phosphorylation of a VEGF receptor (VEGFR1), and also on the phosphorylation of the AKT protein which is activated by means of the VEGF receptors, was studied on HT29-NRP-2 and Colo320^siRNA-ctrl tumour cells.
The cells were cultured for 24 hours in RPMI medium+10% FCS in the presence of the BZ1 control antibody at 20 μg/ml, of ITAC-B1 at 20 μg/ml or of 5-FU at 50 μg/ml. A “nontreated cell” control was added (“medium” control). The cells were then isolated and lysed, and the phosphorylation of VEGFR-1 and of AKT was evaluated by Western blotting on the cell protein extracts, using antibodies directed against nonphosphorylated VEGFR1 (anti-VEGFR1 rabbit polyclonal antibody) or phosphorylated VEGFR1 (anti-phospho-VEGFR1^Tyr1213 rabbit polyclonal antibody, R&D systems) or antibodies directed against nonphosphorylated AKT (rabbit polyclonal antibody C67E7, Cell Signaling technology) or phosphorylated AKT (anti-phospho-AKT^Ser473 rabbit polyclonal antibody DE-9, Cell Signaling technology). The results are represented in FIGS. 16 and 17.

[3] = target: T1, neuropilin-2 on HT29-NRP-2 tumour cells (Homo sapiens, UniProt O60462); test: Competition between VEGFa and ITAC-B1 for recognition of neuropilin-2 (flow cytometry); assay type: binding; conditions: preincubation with VEGF 1000 ng/ml for 15 minutes
T1 construct: expressed in transfected cells; host or cells: HT29 (human colorectal cancer) and P815 (murine mastocytoma) cells, G418-selected
Protocol: These cells were then incubated with the ITAC-B1 antibody or with a control isotype antibody (BZ1 antibody), and analysed by flow cytometry as described in Example 2 above.

[4] = system: p53 protein; test: Western blotting of p53 expression after antibody treatment; assay type: cell-based, human; conditions: 20 ng/ml, 48 hours
Protocol: The HT29, HT29-NRP-2, Colo320^siRNA-ctrl tumour cells and Colo320^siRNA-NRP-2 were exposed to 20 ng/ml of ITAC-B1 antibody or of control antibody, and cultured for 48 hours. After lysis of the cell lines, migration of the protein pellets obtained on a 10% polyacrylamide gel (10 μg of protein per well) and then transfer onto a PVDF membrane, the membrane was incubated overnight with the anti-p53 primary antibody (BD Biosciences, mouse anti-human p53) diluted to 1/500. After washing in TBS/0.1% Tween20, the membranes were incubated for 1 hour with an anti-mouse IgG-HRP secondary antibody diluted to 1/6000. The results are represented in FIG. 19.

T1 sequence (O60462 21-931): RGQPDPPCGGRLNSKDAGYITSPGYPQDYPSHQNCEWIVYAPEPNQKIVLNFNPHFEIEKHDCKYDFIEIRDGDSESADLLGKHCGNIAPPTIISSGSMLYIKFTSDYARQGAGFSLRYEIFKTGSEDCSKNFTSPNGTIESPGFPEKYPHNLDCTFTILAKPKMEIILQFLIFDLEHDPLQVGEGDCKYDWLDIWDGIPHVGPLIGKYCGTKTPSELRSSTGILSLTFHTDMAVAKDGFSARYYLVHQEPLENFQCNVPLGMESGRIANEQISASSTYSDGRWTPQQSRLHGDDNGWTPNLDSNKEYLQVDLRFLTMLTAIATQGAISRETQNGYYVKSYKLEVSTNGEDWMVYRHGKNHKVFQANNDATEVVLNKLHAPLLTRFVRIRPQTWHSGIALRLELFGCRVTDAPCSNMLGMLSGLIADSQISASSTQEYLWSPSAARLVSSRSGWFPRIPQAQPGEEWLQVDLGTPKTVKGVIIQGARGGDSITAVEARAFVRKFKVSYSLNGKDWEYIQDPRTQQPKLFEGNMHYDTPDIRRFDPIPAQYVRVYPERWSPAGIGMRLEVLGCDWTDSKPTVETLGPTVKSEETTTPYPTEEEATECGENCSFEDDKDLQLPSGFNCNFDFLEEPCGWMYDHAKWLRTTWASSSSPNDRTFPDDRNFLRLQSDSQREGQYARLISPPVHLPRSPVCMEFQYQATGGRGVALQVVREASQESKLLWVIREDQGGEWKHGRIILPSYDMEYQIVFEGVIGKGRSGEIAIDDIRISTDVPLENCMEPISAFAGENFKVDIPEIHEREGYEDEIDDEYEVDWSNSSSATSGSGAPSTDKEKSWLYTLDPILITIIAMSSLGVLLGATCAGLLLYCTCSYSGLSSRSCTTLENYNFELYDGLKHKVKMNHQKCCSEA

B1: ITAC-B1: anti-human neuropilin-2 murine monoclonal antibody, VH SEQ ID No. 2, VL SEQ ID No. 4, produced by hybridoma CNCM 1-4054 (antibody, listed as Mus musculus, V domains shown)
VH: EVKLQESGAELVKPGASVKLSCTVSGFNIKDTYIHWVIQRPEQGLEWLGRIDPANGNTKYDPKFQGKATITADTSSNTAYLQLSSLTSEDTAVYYCARWAVVGDYWGQGTTLTVSS
VL: YCDHPLYKFLHVSAGDRVTITCKASQSVSDDVAWYQQKPGQSPKLLIYSASNRYTGVPDRFTGSGYGTDFTFTISTVQPEDLAVYFCQQDYSSPTFGSGTKLELK
- apoptosis induced (Annexin V-APC labelling) as a function of concentration ([1]; 0.5, 1 and 5 μg/ml, 16 hours): dose-dependent
- dose at which apoptosis of cells expressing NRP-2 is induced ([1]; 16 hours incubation, 0.5, 1 and 5 μg/ml tested): greater than or equal to 1 μg/ml
- combined action with anticancer molecules (5-FU, irinotecan) on apoptosis ([1]; FIG. 13): synergy of action
- percentage of cells labelled with Annexin V-APC (apoptosis) ([1]; ITAC-B1 2.5 μg/ml jointly with 5-FU 10 μg/ml (FIG. 13)): ~78.5%
- percentage of cells labelled with Annexin V-APC (apoptosis) ([1]; ITAC-B1 2.5 μg/ml with irinotecan 10 μg/ml (FIG. 13)): ~51%
- percentage of cells labelled with Annexin V-APC (apoptosis) ([1]; ITAC-B1 5 μg/ml jointly with 5-FU 10 μg/ml (FIG. 13)): ~80%
- percentage of cells labelled with Annexin V-APC (apoptosis) ([1]; ITAC-B1 5 μg/ml with irinotecan 10 μg/ml (FIG. 13)): ~58%
- percentage of cells labelled with Annexin V-APC (apoptosis) ([1]; antibody 20 μg/ml, 6 hours, cells cultured with Avastin (bevacizumab) 50 μg/ml (FIG. 15)): approximately 58%
- percentage of cells labelled with Annexin V-APC (apoptosis) ([1]; antibody 20 μg/ml, 6 hours, without Avastin (FIG. 15)): ~51%
- ability to induce apoptosis of tumour cells expressing neuropilin-2 (selection of clones) ([1]; selection criterion of the hybridoma clones): ability to induce apoptosis of tumour cells expressing neuropilin-2
- amount of AKT and its phosphorylation status [2]: similar
- binding to the tumour cells in the presence of VEGFa [3]: does not prevent the binding of ITAC-B1 to the tumour cells
- expression of p53 in lines which express NRP-2 ([4]; HT29-NRP-2 and Colo320^siRNA-ctrl): partly restores the expression of p53
- expression of p53 in lines which do not express NRP-2 ([4]; HT29-ctrl and Colo320^siRNA-NRP-2, with or without antibody): strongly expressed
